Target: ubiquitin

B1: MBP-AtAIRP2 (fusion of maltose-binding protein and Arabidopsis thaliana ABA Insensitive Ring Protein 2) (protein)
chain: MRKSFKDSLKALEADIQFANTLASEYPEEYDGGYVQMRLSYSPAAHLFLFLLQWTDCHFAGALGLLRILIYKAYVDGKTTMSLHERKTSIREFYDVLFPSLLQLHGGITDVEERKQKEICDKRYRKKDRTDKGKMSEIDLEREEECGICLEIRNKVVLPTCNHSMCINCYRNWRARSQSCPFCRGSLKRVNSGDLWIYTCSAEIADLPAIYKENLKRLLIYIDKLPLVTSDPNLVPYAPLPR
Self-Ubiquitination (in vitro, with UBA1, UBC8 and ubiquitin, 30° C. for 1 hour; Western blot using MBP- and ubiquitin-specific antibodies): the molecular weight of the AtAIRP2 protein was increased through Western blot using anti-MBP antibody, and the increase was induced due to ubiquitin

Reference: patent US20140245492
